This series can be described thus: protein stability index of a GFP-peptide fusion (yeast GPS) (PSI 1-4); higher = more stable; sorted into four equal gates, so the index is relative within each strain. Summed up: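 Sequencing reads from sorted gates were used to score each peptide. The library consisted of tiled 17-residue yeast protein peptides fused downstream of GFP on a Cherry-expressing plasmid, pooled and carried in yeast. Mid-log cultures in leucine-free medium were split into four equal gates by GFP/Cherry ratio, and each gate's plasmids were PCR-amplified and Illumina-sequenced. The protein stability index adds up, over all gates, the read frequency multiplied by the gate number.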

± gives the uncertainty stated by the source.

In turn, SFATATCVTCHWNLPGE [SIR2] registered a protein stability index (doa10∆) of 1.64 ± 0.068, a protein stability index (pdr5∆) of 1.97 ± 0.11, a protein stability index (san1∆) of 1.9 ± 0.084 and a protein stability index (ubr1∆) of 1.92 ± 0.064.

With AAMVIMHLMALHIHGSS [COB], the protein stability index reads like this: (doa10∆) 1.9 ± 0.051; (pdr5∆) 1.48 ± 0.059; (san1∆) 1.35 ± 0.093; (ubr1∆) 1.35 ± 0.044.

Take DFIDTATRHVLMRQGVL [RPS3]: the protein stability index was 3.24 ± 0.055 (doa10∆), 3.06 ± 0.059 (pdr5∆), 3.38 ± 0.054 (san1∆) and 2.98 ± 0.04 (ubr1∆).

Turning to KTITSGLKYALATGNWG [RPB2], the protein stability index reads like this: (doa10∆) 2.32 ± 0.066; (pdr5∆) 2.33 ± 0.056; (san1∆) 2.19 ± 0.079; (ubr1∆) 2.31 ± 0.048.

KLWFQLSESLTKFFDDA [RPN9]: the protein stability index is, setting by setting: (doa10∆) 3.02 ± 0.083; (pdr5∆) 3.24 ± 0.099; (san1∆) 3.02 ± 0.066; (ubr1∆) 3.17 ± 0.097.

With SNDLCSQIFDQLKDMQT [SRB8], the protein stability index reads like this: (doa10∆) 2.72 ± 0.047; (pdr5∆) 2.67 ± 0.042; (san1∆) 2.47 ± 0.049; (ubr1∆) 2.71 ± 0.034.

Consider KREGKTRLLNIVMQLRK [ISW2], for which the protein stability index by setting is: (doa10∆) 2.7 ± 0.078; (pdr5∆) 3.02 ± 0.063; (san1∆) 3.11 ± 0.054; (ubr1∆) 2.97 ± 0.057.

With KLQFETDRLSTTQRRYE [SMC1], the protein stability index reads like this: (doa10∆) 3.13 ± 0.094; (pdr5∆) 3.3 ± 0.058; (san1∆) 3.12 ± 0.086; (ubr1∆) 3.12 ± 0.083.

Take KKSVNKLDKQINMADRS [POP6]: the protein stability index runs as follows: (doa10∆) 2.73 ± 0.062; (pdr5∆) 2.94 ± 0.08; (san1∆) 2.63 ± 0.079; (ubr1∆) 2.83 ± 0.054.

Consider TIAKQVLNGQKIVVVRA [RPL16B], for which the protein stability index by setting is: (doa10∆) 3.04 ± 0.19; (pdr5∆) 2.9 ± 0.13; (ubr1∆) 2.6 ± 0.14.

As for AIRKNGQIDFWYQFSNS [SIN4], the protein stability index by setting is: (doa10∆) 2.09 ± 0.087; (pdr5∆) 2.08 ± 0.08; (san1∆) 1.77 ± 0.082; (ubr1∆) 2.52 ± 0.056.

With KEMTLQKNMNDLLRSQL [YIL149C/MLP2], the protein stability index reads like this: (doa10∆) 3.08 ± 0.049; (pdr5∆) 2.43 ± 0.052; (san1∆) 2.19 ± 0.082; (ubr1∆) 2.64 ± 0.046.

NENRNTGAGVDVNTNAN [SNF11]: the protein stability index is 3.11 ± 0.062 (doa10∆), 3.42 ± 0.06 (pdr5∆), 3.15 ± 0.039 (san1∆) and 3.36 ± 0.054 (ubr1∆).

Regarding KERKLRENIAMLKRFFP [SMC1], the protein stability index (doa10∆) turned out to be 2.38 ± 0.18, the protein stability index (pdr5∆) came to 2.52 ± 0.14, the protein stability index (san1∆) turned out to be 2.65 ± 0.23 and the protein stability index (ubr1∆) was determined as 2.59 ± 0.16.

Take NAGTDIVMEDHGVLQGT [MED1]: the protein stability index was found to be 3.11 ± 0.072 (doa10∆), 3.06 ± 0.1 (pdr5∆), 3.08 ± 0.085 (san1∆) and 3 ± 0.067 (ubr1∆).

Turning to LLNINGSRKVAGILRGY [SMX2], the protein stability index (doa10∆) was 2.64 ± 0.14, the protein stability index (pdr5∆) came out at 1.67 ± 0.12, the protein stability index (san1∆) was found to be 2.25 ± 0.14 and the protein stability index (ubr1∆) was determined as 1.52 ± 0.14.

For the sequence IVFDICQILDGELDVLQ [PRP8], the protein stability index runs as follows: (doa10∆) 2.7 ± 0.11; (pdr5∆) 2.63 ± 0.11; (san1∆) 2.39 ± 0.1; (ubr1∆) 3.07 ± 0.11.

Regarding YNLRSLNLINAKLWFYI [RPN3], the protein stability index amounted to 1.32 ± 0.046 (doa10∆), 1.24 ± 0.051 (pdr5∆), 1.38 ± 0.083 (san1∆) and 1.48 ± 0.054 (ubr1∆).

With PPSKHSTLTLSDSEDSD [ESC2], the protein stability index by setting is: (doa10∆) 3.01 ± 0.15; (pdr5∆) 2.82 ± 0.14; (san1∆) 2.59 ± 0.071; (ubr1∆) 2.64 ± 0.19.

For KPALGSLGSSSTTASGT [YGR119C/NUP57], the protein stability index amounted to 3.22 ± 0.085 (doa10∆), 3.3 ± 0.084 (pdr5∆), 3.05 ± 0.062 (san1∆) and 3.06 ± 0.1 (ubr1∆).

On to GINNLSEIWDVSRGQSA [PRP8], for which the protein stability index runs as follows: (doa10∆) 3 ± 0.13; (pdr5∆) 2.67 ± 0.12; (san1∆) 2.74 ± 0.29; (ubr1∆) 2.26 ± 0.073.

For LPLRLQFNEFIQIMANI [PGD1], the protein stability index is 1.52 ± 0.078 (doa10∆), 1.51 ± 0.088 (pdr5∆), 1.28 ± 0.14 (san1∆) and 1.17 ± 0.084 (ubr1∆).

Take TQIVAKFPETSYPILNE [SIN4]: the protein stability index reads like this: (doa10∆) 2.92 ± 0.091; (pdr5∆) 3.02 ± 0.068; (san1∆) 2.91 ± 0.081; (ubr1∆) 2.89 ± 0.057.

DSLIQLANRSKENFILD [YJL039C/NUP192] showed a protein stability index (san1∆) of 3.23 ± 0.14 and a protein stability index (ubr1∆) of 3.13 ± 0.11.

On to EKAKSAGTQSSKFSKQQ [RPL24A], for which the protein stability index reads like this: (doa10∆) 3.15 ± 0.064; (pdr5∆) 3.23 ± 0.076; (san1∆) 3.32 ± 0.047; (ubr1∆) 3.12 ± 0.067.

On to NSRGKFDDACNQIWNIA [SSN2], for which the protein stability index runs as follows: (doa10∆) 3.04 ± 0.15; (pdr5∆) 3.01 ± 0.1; (san1∆) 2.87 ± 0.12; (ubr1∆) 3.09 ± 0.14.
